Data on 31 molecules can be found in US20260184782A1 (TWIST BIOSCIENCE, published 2026).

The target in the assay is T1, human TIGIT-Fc (human, UniProt Q495A1 22-141, limits assumed).
T1 construct: not shown: Fc; not described
T1 sequence (looked up): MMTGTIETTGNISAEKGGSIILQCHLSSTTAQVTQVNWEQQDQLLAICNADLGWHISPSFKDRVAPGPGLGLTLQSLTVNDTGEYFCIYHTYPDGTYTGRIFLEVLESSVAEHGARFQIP
Put plainly: CD155 competition ELISA, single point. Also: test concentration or dose not given here. How it is done:
TIGIT/CD155 inhibition of VHH-Fcs were assessed using an ELISA assay (Table 10B). Briefly, human TIGIT-Fc was coated on a plate & then incubated with VHH-Fcs and human CD155-biotin. Bound CD155-biotin was detected using a streptavidin-HRP conjugate visualized with TMB. Strong inhibitors from the single point screen were titrated to determine EC50 (Table 10C).

B1: TIGIT-SC66 (Fc fusion)
VHH: EVQLVESGGGLVQPGGSLRLSCAASGTTFSSAAMGWFRQAPGKEREWVASVLRGGYTWYADSVKGRFTISADNSKNTAYLQMNSLKPEDTAVYYCVTDPRQWLGHDYWGQGTLVTVSS
notes: VHH-Fc
With B1, the “OD (450 nm)” value was found to be 0.325 OD.

B2: TIGIT-SC45 (Fc fusion)
VHH: EVQLVESGGGLVQPGGSLRLSCAASGGTFNAMGWFRQAPGKEREWVASVLRGGYTWYADSVKGRFTISADNSKNTAYLQMNSLKPEDTAVYYCAKDGGSSGTYQNWWGQGTLVTVSS
notes: VHH-Fc
Take B2: the “OD (450 nm)” value is 0.359 OD.

B3: TIGIT-SC48 (Fc fusion)
VHH: EVQLVESGGGLVQPGGSLRLSCAASGRTSDIYGMGWFRQAPGKEREAVASIWRSGGNTYYADSVKGRFTISADNSKNTAYLQMNSLKPEDTAVYYCASSTLDVWGQGTLVTVSS
notes: VHH-Fc
Regarding B3, the “OD (450 nm)” value stood at 0.381 OD.

B4: TIGIT-SC70 (Fc fusion)
VHH: EVQLVESGGGLVQPGGSLRLSCAASGRTFSSFAMGWFRQAPGKEREFVAAISGSGEDTYYADSVKGRFTISADNSKNTAYLQMNSLKPEDTAVYYCARWRLDRRQGFYYAMDVWGQGTLVTVSS
notes: VHH-Fc
As for B4, the “OD (450 nm)” value was 0.64 OD.

B5: TIGIT-SC72 (Fc fusion)
VHH: EVQLVESGGGLVQPGGSLRLSCAASGGLTFSSYAMGWFRQAPGKEREFVAAISWSGGRTYYADSVKGRFTISADNSKNTAYLQMNSLKPEDTAVYYCARWSAKRHSDTMTYYMDVWGQGTLVTVSS
notes: VHH-Fc
As for B5, the “OD (450 nm)” value came to 0.394 OD.

B6: TIGIT-SC44 (Fc fusion)
VHH: EVQLVESGGGLVQPGGSLRLSCAASGSIFGLGAMGWFRQAPGKERELVAITWGGSTTLYADSVKGRFTISADNSKNTAYLQMNSLKPEDTAVYYCATDQGQWLFDFWGQGTLVTVSS
notes: VHH-Fc
As for B6, the “OD (450 nm)” value worked out at 0.359 OD.

B7: TIGIT-SC35 (Fc fusion)
VHH: EVQLVESGGGLVQPGGSLRLSCAASGFTLENNMMGWFRQAPGKERELVAAISMSGDDTIYADSVKGRFTISADNSKNTAYLQMNSLKPEDTAVYYCARQGDTVMVSGIDYWGQGTLVTVSS
notes: VHH-Fc
In the case of B7, the “OD (450 nm)” value stood at 0.42 OD.

B8: TIGIT-SC74 (Fc fusion)
VHH: EVQLVESGGGLVQPGGSLRLSCAASGRTFANNAMGWFRQAPGKEREFVAAINWSGGNTYYADSVKGRFTISADNSKNTAYLQMNSLKPEDTAVYYCAKWSYYGSGLYGMDVWGQGTLVTVSS
notes: VHH-Fc
For the molecule B8, the “OD (450 nm)” value is 0.649 OD.

B9: TIGIT-SC75 (Fc fusion)
VHH: EVQLVESGGGLVQPGGSLRLSCAASGFIGNYHAMGWFRQAPGKEREFVAAIRWSDGSSYYADSVKGRFTISADNSKNTAYLQMNSLKPEDTAVYYCAKWSYYGSGLYGMDVWGQGTLVTVSS
notes: VHH-Fc
As for B9, the “OD (450 nm)” value is 0.652 OD.

B10: TIGIT-SC49 (Fc fusion)
VHH: EVQLVESGGGLVQPGGSLRLSCAASGRTFIGYHMGWFRQAPGKEREFVAAISWTGESTLYADSVKGRFTISADNSKNTAYLQMNSLKPEDTAVYYCARDDYGDYRRYFQHWGQGTLVTVSS
notes: VHH-Fc
With B10, the “OD (450 nm)” value was determined as 0.382 OD.

B11: TIGIT-SC47 (Fc fusion)
VHH: EVQLVESGGGLVQPGGSLRLSCAASGRALNMYVMGWFRQAPGKERELVAAIDWSGGSALYADSVKGRFTISADNSKNTAYLQMNSLKPEDTAVYYCASGDGYSMDYFDPWGQGTLVTVSS
notes: VHH-Fc
Regarding B11, the “OD (450 nm)” value worked out at 0.69 OD.

B12: TIGIT-SC69 (Fc fusion)
VHH: EVQLVESGGGLVQPGGSLRLSCAASGGTFNGRAMGWFRQAPGKEREFVAAISSIGDTYYADSVKGRFTISADNSKNTAYLQMNSLKPEDTAVYYCARWRLDRRQGFYYAMDVWGQGTLVTVSS
notes: VHH-Fc
In the case of B12, the “OD (450 nm)” value turned out to be 0.666 OD.

B13: TIGIT-SC34 (Fc fusion)
VHH: EVQLVESGGGLVQPGGSLRLSCAASGTTFSPYTMGWFRQAPGKEREFVASINSGSRTNYADSVKGRFTISADNSKNTAYLQMNSLKPEDTAVYYCVRSEIGWGQGTLVTVSS
notes: VHH-Fc
For B13, the “OD (450 nm)” value was determined as 0.4 OD.

B14: TIGIT-SC55 (Fc fusion)
VHH: EVQLVESGGGLVQPGGSLRLSCAASGFPFDDYAMGWFRQAPGKERELVAVIRWTGMNTHYADSVKGRFTISADNSKNTAYLQMNSLKPEDTAVYYCAKGIAVAGAFDYWGQGTLVTVSS
notes: VHH-Fc
For B14, the “OD (450 nm)” value came to 0.364 OD.

B15: TIGIT-SC43 (Fc fusion)
VHH: EVQLVESGGGLVQPGGSLRLSCAASGFTFADYAMGWFRQAPGKEREMVAAIGWNSGTTEYADSVKGRFTISADNSKNTAYLQMNSLKPEDTAVYYCARDTNGWFFDFWGQGTLVTVSS
notes: VHH-Fc
For B15, the “OD (450 nm)” value stood at 0.64 OD.

B16: TIGIT-SC39 (Fc fusion)
VHH: EVQLVESGGGLVQPGGSLRLSCAASGRTVSSHAMGWFRQAPGKEREFVAAITSSGSTYYADSVKGRFTISADNSKNTAYLQMNSLKPEDTAVYYCASSYSSSSGLGDIWGQGTLVTVSS
notes: VHH-Fc
B16: the “OD (450 nm)” value came out at 0.652 OD.

B17: TIGIT-SC81 (Fc fusion)
VHH: EVQLVESGGGLVQPGGSLRLSCAASGRSFKDDAMGWFRQAPGKEREFVAAISWSGDSTHYADSVKGRFTISADNSKNTAYLQMNSLKPEDTAVYYCARWVWASGTYWIDYWGQGTLVTVSS
notes: VHH-Fc
On to B17, for which the “OD (450 nm)” value came out at 0.553 OD.

B18: TIGIT-SC52 (Fc fusion)
VHH: EVQLVESGGGLVQPGGSLRLSCAASGFLFDSYAMGWFRQAPGKEREFVAAISTGGGWRTYADSVKGRFTISADNSKNTAYLQMNSLKPEDTAVYYCAKRGNDNWYFDLWGQGTLVTVSS
notes: VHH-Fc
In the case of B18, the “OD (450 nm)” value was determined as 0.351 OD.

B19: TIGIT-SC76 (Fc fusion)
VHH: EVQLVESGGGLVQPGGSLRLSCAASGFTFSDYAMGWFRQAPGKERELVARIGHDGSTDYADSVKGRFTISADNSKNTAYLQMNSLKPEDTAVYYCLGGLDPWGQGTLVTVSS
notes: VHH-Fc
In the case of B19, the “OD (450 nm)” value was determined as 0.673 OD.

B20: TIGIT-SC56 (Fc fusion)
VHH: EVQLVESGGGLVQPGGSLRLSCAASGNTFSGGFMGWFRQAPGKEREWVASVLRGGYTWYADSVKGRFTISADNSKNTAYLQMNSLKPEDTAVYYCAHSKGYNWFDPWGQGTLVTVSS
notes: VHH-Fc
As for B20, the “OD (450 nm)” value turned out to be 0.335 OD.

B21: TIGIT-SC85 (Fc fusion)
VHH: EVQLVESGGGLVQPGGSLRLSCAASGRTFSPYTMGWFRQAPGKEREWVAGISQSGGSTAYADSVKGRFTISADNSKNTAYLQMNSLKPEDTAVYYCARDLNAMGDAYDIWGQGTLVTVSS
notes: VHH-Fc
Regarding B21, the “OD (450 nm)” value is 0.768 OD.

B22: TIGIT-SC73 (Fc fusion)
VHH: EVQLVESGGGLVQPGGSLRLSCAASGSSFSLADYAMGWFRQAPGKEREFVAAISYNVGTTYYADSVKGRFTISADNSKNTAYLQMNSLKPEDTAVYYCARWSAKRHSDTMTYYMDVWGQGTLVTVSS
notes: VHH-Fc
Turning to B22, the “OD (450 nm)” value stood at 0.405 OD.

B23: TIGIT-SC86 (Fc fusion)
VHH: EVQLVESGGGLVQPGGSLRLSCAASGIIASDSAMGWFRQAPGKEREFVAAIRWSGKETWYADSVKGRFTISADNSKNTAYLQMNSLKPEDTAVYYCARWGGVTFGGVYPLEYWGQGTLVTVSS
notes: VHH-Fc
B23: the “OD (450 nm)” value is 0.716 OD.

B24: TIGIT-SC88 (Fc fusion)
VHH: EVQLVESGGGLVQPGGSLRLSCAASGFTFSSDWMGWFRQAPGKEREFVAAINRSGHSTSYADSVKGRFTISADNSKNTAYLQMNSLKPEDTAVYYCARWGGVTFGGVYPLEYWGQGTLVTVSS
notes: VHH-Fc
Turning to B24, the “OD (450 nm)” value came out at 0.484 OD.

B25: TIGIT-SC103 (Fc fusion)
VHH: EVQLVESGGGLVQPGGSLRLSCAASGTITSAVFMGWFRQAPGKEREFVAAISWSGGDTNYADSVKGRFTISADNSKNTAYLQMNSLKPEDTAVYYCARWGGITFGGVYPLDYWGQGTLVTVSS
notes: VHH-Fc
With B25, the “OD (450 nm)” value came to 0.666 OD.

B26: TIGIT-SC40 (Fc fusion)
VHH: EVQLVESGGGLVQPGGSLRLSCAASGFSFDRWAMGWFRQAPGKERELVARISWNGGSTYYADSVKGRFTISADNSKNTAYLQMNSLKPEDTAVYYCARDDGWLQFMHWGQGTLVTVSS
notes: VHH-Fc
Consider B26, for which the “OD (450 nm)” value turned out to be 0.613 OD.

B27: TIGIT-SC33 (Fc fusion)
VHH: EVQLVESGGGLVQPGGSLRLSCAASGFLFDSYAMGWFRQAPGKEREFVAAVSQSGLLTFYADSVKGRFTISADNSKNTAYLQMNSLKPEDTAVYYCASRTSSWWWFDPWGQGTLVTVSS
notes: VHH-Fc
As for B27, the “OD (450 nm)” value is 0.764 OD.

B28: TIGIT-SC71 (Fc fusion)
VHH: EVQLVESGGGLVQPGGSLRLSCAASGSIRSLNAMGWFRQAPGKEREFVAAINWDSARTYYADSVKGRFTISADNSKNTAYLQMNSLKPEDTAVYYCARWSAKRHSDTMTYYMDVWGQGTLVTVSS
notes: VHH-Fc
For B28, the “OD (450 nm)” value was 0.868 OD.

B29: TIGIT-SC79 (Fc fusion)
VHH: EVQLVESGGGLVQPGGSLRLSCAASGSILSINTMGWFRQAPGKEREFVAAITSAGGTTYYADSVKGRFTISADNSKNTAYLQMNSLKPEDTAVYYCARWHYDILTGYYWLDSWGQGTLVTVSS
notes: VHH-Fc
Regarding B29, the “OD (450 nm)” value came to 0.8 OD.

B30: TIGIT-SC99 (Fc fusion)
VHH: EVQLVESGGGLVQPGGSLRLSCAASGSIFSMNTMGWFRQAPGKEREFVGAINWSGGSTIYADSVKGRFTISADNSKNTAYLQMNSLKPEDTAVYYCARWDYDILTNYYWLEYWGQGTLVTVSS
notes: VHH-Fc
For the molecule B30, the “OD (450 nm)” value was 0.635 OD.

B31: TIGIT-SC80 (Fc fusion)
VHH: EVQLVESGGGLVQPGGSLRLSCAASGNIPPINAMGWFRQAPGKEREFVAAINYSGGSTYYADSVKGRFTISADNSKNTAYLQMNSLKPEDTAVYYCARWHYDILTGYYWLDSWGQGTLVTVSS
notes: VHH-Fc
Take B31: the “OD (450 nm)” value came out at 0.508 OD.
